Assay results as given in PMC5047623 (PLoS ONE, 2016).

Target: T1, purified α5ß1 ectodomain protein (human, UniProt P08648 42-995; P05556 21-728)
T1 construct: signal peptide in the construct; human integrin alpha-5, residues 1-995; human integrin beta-1, residues 1-728; Thrombin cleavage site between the integrin and the Fc; residues of the site may remain; also called purified and untagged α5ß1; α5ß1 integrin; not shown: Fc, C-terminal, cleaved
Assay: SPR; ProteOn XPR36, GLC chip; rhTie1 (4750 RU) and rhTie2 (6400 RU) amine-coupled; α5ß1 at 3 μM flowed at 60 μL/min for 3 min; 25 degrees Celsius; 20 mM Tris, 100 mM NaCl, 1 mM MnCl2, 2 mM CaCl2 pH 7.5; BSA channel subtracted
Details: both partners purified

T1 sequence (P08648 42-995, chain 1 of 2): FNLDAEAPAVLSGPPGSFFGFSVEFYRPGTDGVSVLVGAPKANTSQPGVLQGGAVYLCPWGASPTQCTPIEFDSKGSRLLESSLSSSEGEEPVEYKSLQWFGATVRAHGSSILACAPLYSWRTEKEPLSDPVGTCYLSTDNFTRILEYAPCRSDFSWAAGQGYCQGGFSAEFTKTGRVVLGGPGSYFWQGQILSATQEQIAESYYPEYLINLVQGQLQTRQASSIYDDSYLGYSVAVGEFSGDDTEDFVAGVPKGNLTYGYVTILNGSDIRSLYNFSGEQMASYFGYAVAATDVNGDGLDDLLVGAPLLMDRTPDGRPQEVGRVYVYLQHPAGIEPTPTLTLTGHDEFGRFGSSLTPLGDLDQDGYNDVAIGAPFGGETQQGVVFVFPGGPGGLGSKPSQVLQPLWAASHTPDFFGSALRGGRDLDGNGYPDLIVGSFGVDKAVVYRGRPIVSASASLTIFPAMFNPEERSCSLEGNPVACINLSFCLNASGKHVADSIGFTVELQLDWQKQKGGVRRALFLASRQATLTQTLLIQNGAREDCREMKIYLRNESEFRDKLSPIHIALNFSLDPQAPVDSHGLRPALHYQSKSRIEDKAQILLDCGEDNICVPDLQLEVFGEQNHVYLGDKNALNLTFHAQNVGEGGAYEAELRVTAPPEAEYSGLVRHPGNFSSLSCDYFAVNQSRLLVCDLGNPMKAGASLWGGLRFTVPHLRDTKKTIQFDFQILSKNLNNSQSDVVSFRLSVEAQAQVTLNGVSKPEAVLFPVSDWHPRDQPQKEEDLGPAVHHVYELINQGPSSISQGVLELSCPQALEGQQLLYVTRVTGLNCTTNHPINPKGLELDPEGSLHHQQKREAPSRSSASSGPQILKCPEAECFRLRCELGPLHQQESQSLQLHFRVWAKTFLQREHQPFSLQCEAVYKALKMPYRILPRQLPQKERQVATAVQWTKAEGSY
T1 sequence (P05556 21-728, chain 2 of 2): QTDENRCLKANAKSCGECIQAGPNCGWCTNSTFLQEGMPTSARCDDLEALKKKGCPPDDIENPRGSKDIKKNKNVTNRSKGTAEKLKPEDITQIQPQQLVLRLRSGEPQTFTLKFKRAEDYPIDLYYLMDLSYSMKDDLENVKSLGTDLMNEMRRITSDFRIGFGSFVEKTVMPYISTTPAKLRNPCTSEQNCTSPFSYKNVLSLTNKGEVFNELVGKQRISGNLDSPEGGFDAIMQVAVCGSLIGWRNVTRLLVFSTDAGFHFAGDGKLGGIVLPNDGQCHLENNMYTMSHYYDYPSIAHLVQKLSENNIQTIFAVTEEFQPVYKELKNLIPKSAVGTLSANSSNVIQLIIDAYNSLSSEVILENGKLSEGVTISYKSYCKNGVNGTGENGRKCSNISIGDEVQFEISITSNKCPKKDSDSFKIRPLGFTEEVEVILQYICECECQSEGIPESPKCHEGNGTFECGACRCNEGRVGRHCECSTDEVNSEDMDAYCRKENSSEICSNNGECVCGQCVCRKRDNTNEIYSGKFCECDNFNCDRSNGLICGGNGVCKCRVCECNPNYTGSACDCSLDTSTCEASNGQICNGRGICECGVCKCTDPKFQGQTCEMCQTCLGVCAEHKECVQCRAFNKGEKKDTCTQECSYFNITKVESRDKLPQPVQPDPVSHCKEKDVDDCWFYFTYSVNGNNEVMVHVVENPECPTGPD

B1: recombinant human Tie1 (rhTie1) extracellular domain, Fc tagged (Fc fusion, UniProt P35590 22-759, looked up)
chain: AVDLTLLANLRLTDPQRFFLTCVSGEAGAGRGSDAWGPPLLLEKDDRIVRTPPGPPLRLARNGSHQVTLRGFSKPSDLVGVFSCVGGAGARRTRVIYVHNSPGAHLLPDKVTHTVNKGDTAVLSARVHKEKQTDVIWKSNGSYFYTLDWHEAQDGRFLLQLPNVQPPSSGIYSATYLEASPLGSAFFRLIVRGCGAGRWGPGCTKECPGCLHGGVCHDHDGECVCPPGFTGTRCEQACREGRFGQSCQEQCPGISGCRGLTFCLPDPYGCSCGSGWRGSQCQEACAPGHFGADCRLQCQCQNGGTCDRFSGCVCPSGWHGVHCEKSDRIPQILNMASELEFNLETMPRINCAAAGNPFPVRGSIELRKPDGTVLLSTKAIVEPEKTTAEFEVPRLVLADSGFWECRVSTSGGQDSRRFKVNVKVPPVPLAAPRLLTKQSRQLVVSPLVSFSGDGPISTVRLHYRPQDSTMDWSTIVVDPSENVTLMNLRPKTGYSVRVQLSRPGEGGEGAWGPPTLMTTDCPEPLLQPWLEGWHVEGTDRLRVSWSLPLVPGPLVGDGFLLRLWDGTRGQERRENVSSPQARTALLTGLTPGTHYQLDVQLYHCTLLGPASPPAHVLLPPSGPPAPRHLHAQALSDSEIQLTWKHPEALPGPISKYVVEVQVAGGAGDPLWIDVDRPEETSTIIRGLNASTRYLFRMRASIQGLGDWSNTVEESTLGNGLQAEGPVQESRAAEEGLDQ
notes: human Tie1, full extracellular domain; amine-coupled to a GLC sensor chip; also called immobilized Tie1
binding result: binds
